Like-named read-outs stand apart in the source and are kept apart here.
B1: H1H1911N: human IgG1 Fc anti-EGFRvIII antibody with variable domains 1911; HCVR/LCVR SEQ ID NOs 50/58 (antibody, V domains shown)
VH: QVQLVESGGGVVQPGRSLRLSCAASGFTFSRYGIHWVRQAPGKGLEWVAVIWHDGSNKYYADSVKGRFTISRDNSKNTLYLQMTSLRAEDTAVYYCARDGLEIRDHYYYGMDVWGQGTTVTVSS
VL: DIQMTQSPSTLSASVGDRVTITCRASQSTSSWLAWYQQKPGKAPTLLIYKASSLESGVPSKFSGSGSGTEFTLTISSLQPDDFATYYCQQYNRYSRTFGQGTKVEIK
modifications: human IgG1 Fc
B2: H1H1913N: human IgG1 Fc anti-EGFRvIII antibody with variable domains 1913; HCVR/LCVR SEQ ID NOs 130/138 (antibody, V domains shown)
VH: QVQLQQWGAGLLKPSETLSLTCAVYGGSFSGDYWSWIRQSPGKGLEWIGEINHSGSTNYNPSLKSRVTISIDTSKNQFSLKLSSVTAADTAVYYCARGGGDYYYGMDVWGLGTTVTVSS
VL: AIQMTQSPSSLSASVGDRVTITCRASQGIGNDLGWYQQKPGKAPNLLIYATSSLQSGVPSRFSGSGSGTDFTLTISSLQPEDFATYYCLQDYNYPWTFGQGTKVEIK
modifications: human IgG1 Fc
B3: H1H2195P: human IgG1 Fc anti-EGFRvIII antibody; HCVR/LCVR SEQ ID NOs 18/26 (antibody, V domains shown)
VH: QVQLVESGGGVVQPGRSRRLSCVGSGFIFSSYGMHWVRQAPGKGLEWVALIFYDGSNEYYVDSVKGRFTISRDNSKNTLYLQMNSLRAEDTAVYYCAREGYSQRYKYYFGMDVWGQGTTVTVSS
VL: DIQMTQSPSSVSASVGDRVTITCRASQGISSWLAWYQQQPGKAPKLLIYAASSLQSGVPSRFSGSGSGTDFTLTISSLQPEDFATYYCQQTNSFPLTFGGGTKVEIKR
modifications: human IgG1 Fc
B4: H1H1912N: human IgG1 Fc anti-EGFRvIII antibody with variable domains 1912; HCVR/LCVR SEQ ID NOs 66/74 (antibody, V domains shown)
VH: EVQLVESGGGLVQPGRSLRLSCAASGFTFDDYAMHWVRQVPGKGLEWVSGISWNSGSIGYADSVKGRFTISRDNAKNSLYLQMNSLRAEDTALYYCAKDIHDYGKDYYYYYGMDVWGQGTTVTVSS
VL: EIALTQSPGTLSLSPGERATLSCRASQSVSSTYLAWYQQKPGQAPRLLIYGASSRATGIPDRFSGSGSGTDFTLTISRLEPEDFAVYYCQQYDSSPITFGQGTRLEIK
modifications: human IgG1 Fc

Tests used:
EGFRvIII-mFc [1] = format: binding, human; conditions: 37° C., receptor-capture, EGFRvIII-mFc captured
Sequence of EGFRvIII-mFc (as listed by the source): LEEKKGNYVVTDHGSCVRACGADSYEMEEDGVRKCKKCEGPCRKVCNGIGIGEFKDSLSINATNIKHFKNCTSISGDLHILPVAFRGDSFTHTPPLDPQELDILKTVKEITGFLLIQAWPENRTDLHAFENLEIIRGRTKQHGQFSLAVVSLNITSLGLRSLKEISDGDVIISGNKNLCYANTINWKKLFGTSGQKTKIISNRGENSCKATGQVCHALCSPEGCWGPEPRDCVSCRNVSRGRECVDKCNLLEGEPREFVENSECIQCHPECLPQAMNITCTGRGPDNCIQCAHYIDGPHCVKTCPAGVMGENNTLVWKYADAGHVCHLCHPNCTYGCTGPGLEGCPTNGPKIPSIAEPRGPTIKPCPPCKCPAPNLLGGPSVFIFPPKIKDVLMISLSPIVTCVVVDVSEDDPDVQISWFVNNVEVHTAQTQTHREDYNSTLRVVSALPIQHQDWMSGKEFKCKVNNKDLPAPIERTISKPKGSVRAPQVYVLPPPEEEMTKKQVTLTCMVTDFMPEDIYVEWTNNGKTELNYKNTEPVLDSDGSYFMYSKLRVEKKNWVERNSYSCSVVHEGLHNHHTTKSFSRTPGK
Experimental: (§1) Measurements were conducted on a T100 BIACORE™ instrument. […] In the receptor-capture format, either EGFRvIII-mFc or EGFR-mFc, was captured on the BIACORE™ chip and the respective antibodies flowed over. Kinetic association (ka) and dissociation (kd) rate constants were determined by processing and fitting the data to a 1:1 binding model using Scrubber 2.0 curve fitting software. Binding dissociation equilibrium constants (KD) and dissociative half-lives (t1/2) were calculated from the kinetic rate constants as: KD (M)=kd/ka; and t1/2 (min)=ln 2/(60*kd).

HEK293 cells = test: FACS cell binding selectivity; format: cell-based; conditions: 10 μg/ml
Experimental: To determine the specificity of the anti-EGFRvIII mAbs, their binding to HEK293, HEK293 cells expressing EGFRvIII (HEK293/EGFRvIII) and A431 cells, was analyzed by fluorescence activated cell sorting (FACS). HEK293/EGFRvIII cells were prepared by transfecting HEK293 cells with neomycin resistant DNA vectors constitutively expressing full-length hEGFRvIII (SEQ ID NO:147) using LIPOFECTAMINE™ 2000 transfection reagent (INVITROGEN™). At two days post-transfection, cells were placed under G418 selection for approximately two weeks. Populations positively expressing EGFRvIII were isolated via fluorescence activated cell sorting (FACS). The HEK293 cells expressing ˜3×10^6 copies of EGFRvIII per cell were used in the experiment. Briefly, the anti-EGFRvIII antibodies at 10 μg/ml were incubated with cells for 30 minutes at room temperature, washed, incubated with secondary antibody, i.e., phycoerythrin (PE)-labeled goat F(ab′)2 against human IgG (cat #109-116-170, Jackson ImmunoResearch Laboratories), followed by a final wash before FACS analysis. In another set of experiment, anti-EGFRvIII antibodies were directly conjugated via their lysine residues with the fluorescent dye, ALEXA FLUOR® 488 Dye (INVITROGEN™), thereby eliminating the step using the secondary antibody. […] Controls I, II, III, IV and V are described above. MFI: Mean Fluorescence Intensity.

HEK293/EGFRvIII cells = test: Internalization of anti-EGFRvIII mAbs; format: cell-based, human; conditions: 37° C., 1 h
Experimental: Anti-EGFRvIII mAbs (10 ug/ml) were incubated with HEK293/[…] (see Example 7, supra) cells for 2 hours on ice followed by two PBS washes. Cells were then subjected to a 30-min incubation on ice with secondary DYLIGHT™ 488-conjugated anti-human IgG Fab fragments (Jackson ImmunoResearch Laboratories) followed by two additional PBS washes. Antibodies were allowed to internalize for 1 h at 37° C. in internalization buffer (PBS+FBS) or remained at 4° C. Cells were fixed in 4% formaldehyde, and nuclei stained with DRAQ5® DNA dye (Cell Signaling Technology, Inc.). Images were acquired at 40× on the IMAGEXPRESS™ high content system (Molecular Devices) and internalized vesicles were quantitated using Columbus software (Perkin Elmer).

[2] = test system: N-term Biotin control peptide; test: Antibody specificity by ELISA; conditions: ELISA binding, irrelevant peptide with N-terminal biotin
Experimental: (§2) To further characterize anti-hEGFRvIII mAbs, their binding specificity was examined by ELISA. […] For the junctional peptides that were linked to biotin either at C-terminal (SEQ ID NO:149) or N-terminal (SEQ ID NO:150) via a linker, plates were pre-coated with avidin. Also, coated was an irrelevant peptide (control peptide) with or without biotin at its N-terminal. Anti-EGFRvIII antibodies as well as an isotype control antibody were added to coated plates and allowed to incubate for 1 hour at 25° C. The plates were then washed and bound anti-EGFRvIII mAbs were detected with anti-human Fc antibodies conjugated with horse-radish peroxidase (HRP). Plates were developed with a tetra-methyl-benzidine (TMB) substrate solution to produce a colorimetric reaction and neutralized with sulfuric acid before reading absorbance at 450 nm on a VICTOR™ X5 plate reader. Data analysis used a sigmoidal dose-response model within PRISM™ software. […] NT: Not tested. Controls I-III: As described above.

Control peptide = test: Antibody specificity by ELISA; conditions: ELISA binding, irrelevant peptide
Experimental: as §2

EGFR-mFc [3] = target: T1, EGFR-mFc (Homo sapiens, UniProt P00533); test: SPR (BIACORE) binding kinetics, receptor-capture format; conditions: 37° C., EGFR-mFc captured, NB=no binding
Experimental: as §1

C-term biotin J-peptide = C-term biotin J-peptide (Homo sapiens, UniProt P00533, DELINS30-297G); test: Antibody specificity by ELISA; conditions: ELISA binding, avidin pre-coated plates
Experimental: (§3) To further characterize anti-hEGFRvIII mAbs, their binding specificity was examined by ELISA. […] For the junctional peptides that were linked to biotin either at C-terminal (SEQ ID NO:149) or N-terminal (SEQ ID NO:150) via a linker, plates were pre-coated with avidin. Also, coated was an irrelevant peptide (control peptide) with or without biotin at its N-terminal. Anti-EGFRvIII antibodies as well as an isotype control antibody were added to coated plates and allowed to incubate for 1 hour at 25° C. The plates were then washed and bound anti-EGFRvIII mAbs were detected with anti-human Fc antibodies conjugated with horse-radish peroxidase (HRP). […] Data analysis used a sigmoidal dose-response model within PRISM™ software.

N-term biotin J-peptide = N-term biotin J-peptide (Homo sapiens, UniProt P00533, DELINS30-297G); test: Antibody specificity by ELISA; conditions: ELISA binding, avidin pre-coated plates
Experimental: as §3

[4] = target: junctional peptide (J-peptide) (Homo sapiens, UniProt P00533, DELINS30-297G); test: Antibody specificity by ELISA; conditions: ELISA binding
Experimental: as §3

EGFRvIII-mFc [5] = test: SPR (BIACORE) binding kinetics, mAb-capture format; design: species or system human; conditions: 37° C., NB=no binding; for ka: analyte EGFRvIII-mFc (dimeric); for kd: analyte EGFRvIII-mFc
EGFRvIII-mmh = EGFRvIII-mmh (Homo sapiens, UniProt P00533, DELINS30-297G); test: SPR (BIACORE) binding kinetics, mAb-capture format; conditions: 37° C., NB=no binding; for ka: analyte EGFRvIII-mmh (monomeric); for kd: analyte EGFRvIII-mmh
Experimental: as §1

EGFR-mFc [6] = target: T1, EGFR-mFc; test: SPR (BIACORE) binding kinetics, mAb-capture format; conditions: 37° C., NB=no binding
EGFR-mmh = EGFR-mmh (Homo sapiens, UniProt P00533); test: SPR (BIACORE) binding kinetics, mAb-capture format; conditions: 37° C., NB=no binding
[7] = directly labeled (ALEXA FLUOR 488) antibodies

Row | Molecule | ka (EGFRvIII-mFc [1]) | kd (EGFRvIII-mFc [1]) | Parental HEK293 MFI (HEK293 cells; [7]) | Parental HEK293 MFI (HEK293 cells; secondary PE-labeled anti-Fc) | internalization (HEK293/EGFRvIII cells) | EC50 [2] | EC50 (Control peptide) | ka (EGFR-mFc [3]) | kd (EGFR-mFc [3]) | EC50 (C-term biotin J-peptide) | EC50 (N-term biotin J-peptide) | EC50 [4] | ka (EGFRvIII-mFc [5]) | kd (EGFRvIII-mFc [5]) | ka (EGFRvIII-mmh) | kd (EGFRvIII-mmh) | further results
1 | B1 | 32900 M⁻¹ s⁻¹ | 0.000643 s⁻¹ | 3593 | 1812 | Internalization was also observed | > 10 nM | > 10 nM | 7770 M⁻¹ s⁻¹ | 0.00174 s⁻¹ | > 10 nM | > 10 nM | > 10 nM | – | – | – | – | –
2 | B2 | 63000 M⁻¹ s⁻¹ | – | 4801 | – | – | – | – | 5930 M⁻¹ s⁻¹ | 1e-06 s⁻¹ | – | – | – | 14000 M⁻¹ s⁻¹ | 0.000316 s⁻¹ | 163 M⁻¹ s⁻¹ | 0.00114 s⁻¹ | Kd (EGFRvIII-mFc [1]): 0.0158 nM
3 | B3 | 237000 M⁻¹ s⁻¹ | 2.53e-05 s⁻¹ | – | 1176 | – | > 10 nM | > 10 nM | 225000 M⁻¹ s⁻¹ | 5.2e-05 s⁻¹ | > 10 nM | > 10 nM | > 10 nM | 102000 M⁻¹ s⁻¹ | 0.000113 s⁻¹ | 64800 M⁻¹ s⁻¹ | 0.000694 s⁻¹ | ka (EGFR-mFc [6]; analyte EGFR-mFc (dimeric)): 92000 M⁻¹ s⁻¹; kd (EGFR-mFc [6]; analyte EGFR-mFc): 0.000189 s⁻¹; ka (EGFR-mmh; analyte EGFR-mmh (monomeric)): 56600 M⁻¹ s⁻¹; kd (EGFR-mmh; analyte EGFR-mmh): 0.000523 s⁻¹
4 | B4 | 99000 M⁻¹ s⁻¹ | 0.000537 s⁻¹ | 3727 | – | Internalization was also observed | > 10 nM | > 10 nM | 39900 M⁻¹ s⁻¹ | 0.000914 s⁻¹ | > 10 nM | > 10 nM | > 10 nM | 20400 M⁻¹ s⁻¹ | 0.000971 s⁻¹ | 18300 M⁻¹ s⁻¹ | 0.0164 s⁻¹ | –
